Measured values published in patent EP0797662B1 (NEW YORK UNIVERSITY, dated 1995).

Target: T1, SHC (54 kDa band, in lysates of NIH 3T3 cells expressing the EGFR/HER2 chimera) (mouse, UniProt P98083-2 1-469, limits assumed, tyrosine phosphorylated after EGF stimulation)
T1 sequence (looked up): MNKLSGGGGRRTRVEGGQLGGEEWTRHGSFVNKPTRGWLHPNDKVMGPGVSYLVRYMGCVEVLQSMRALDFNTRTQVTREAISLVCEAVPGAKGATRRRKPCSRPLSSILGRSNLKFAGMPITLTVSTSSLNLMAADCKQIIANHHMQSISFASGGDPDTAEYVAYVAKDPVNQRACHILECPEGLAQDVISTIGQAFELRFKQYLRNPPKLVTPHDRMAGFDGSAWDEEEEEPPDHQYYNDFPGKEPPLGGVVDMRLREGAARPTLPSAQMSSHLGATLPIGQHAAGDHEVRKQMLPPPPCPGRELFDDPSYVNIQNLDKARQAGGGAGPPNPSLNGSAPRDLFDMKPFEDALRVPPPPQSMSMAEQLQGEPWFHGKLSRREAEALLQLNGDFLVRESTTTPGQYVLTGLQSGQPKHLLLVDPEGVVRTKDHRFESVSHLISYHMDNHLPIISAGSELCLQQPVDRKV
Experiment: blot of lysate of NIH 3T3 cells with the chimera probed with 32P-labelled GST-GRB-7 SH2

binding result: binds
B1: GST fusion protein of the GRB-7 SH2 domain (amino acids 419-535) in pGSTag (other, mouse, UniProt Q03160 419-535, looked up)
chain: CSGSSLSAAIHRTQPWFHGRISREESQRLIGQQGLVDGVFLVRESQRNPQGFVLSLCHLQKVKHYLILPSEDEGCLYFSMDEGQTRFTDLLQLVEFHQLNRGILPCLLRHCCARVAL
modifications: 32P-phosphate at the protein kinase A site of the vector when used as the probe
notes: range 419-535; also called GST-GRB-7-SH2; [32P]GRB-7 SH2 domain; not shown: glutathione S-transferase of the pGSTag vector; protein kinase A phosphorylation site and linker of pGSTag
